Data: the supplement of paper PMC12764529
± gives the half width of the 95% confidence interval.

What was measured:
[1] = folding stability dG unfold from trypsin proteolysis; higher = more stable
How it was run: (§1)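 Unfolding free energy was derived, per protease or combined, against a sequence-predicted unfolded-state K50 and a shared folded-state K50, starting from K50 inferred by Bayesian fitting of sequencing counts. Digestion with trypsin and chymotrypsin was carried out on designed mini-proteins under 80 residues without cysteine in a PA-tagged cDNA display construct. Only designs with AlphaFold2 dimer inter-PAE above 15 were kept.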

[2] = folding stability dG unfold from chymotrypsin proteolysis; higher = more stable
How it was run: as §1

[3] = folding stability dG unfold (combined trypsin and chymotrypsin); higher = more stable
How it was run: as §1

Row | Sequence | folding stability dG unfold [1] [kcal/mol] | folding stability dG unfold [2] [kcal/mol] | folding stability dG unfold [3] [kcal/mol]
1 | SAMKPKEVVIEISVEELRKLAKELFPEKELTLEELKNLVKELLEKLGIKVKKVEIVKVDPEKKRIVIKVSAG [r14_303_TrROS_Hall] | 2.77 ± 0.15 | 1.72 ± 0.083 | 2.02 ± 0.21
2 | SAGGSASSYGIEIEFSEDPNSKTKKITITVTRPDGTVETVTITNPDITDEEAKKIGEELANEVANSSAGGSA [r15_526_JUSTAS] | 2.19 ± 0.055 | 1.93 ± 0.02 | 2.06 ± 0.059
3 | SAGMEEEEVVLKIRVKDPETGEEKTFEVKLKDIEKVEVDEDGNIRIYLKEDGKEITIPADKITEVELLSAGG [r19_416_TrROS_Hall] | 3.15 ± 0.11 | 3.86 ± 0.059 | 3.71 ± 0.089
4 | SAGMEITTVTLPDGTKLITITLPVPGGPSITADVPYDPATGKVTLLKITGEDPALEALAKEAVEKLKKESAG [r5_266_JUSTAS] | 0.68 ± 0.032 | 1.17 ± 0.053 | 1.09 ± 0.11
5 | SAGGSFVKIKVKFDNKPIEIPIPDFVQKVEGDYQTIVFPEGDADSVLKKLKEASKKIEIVKVEVVKPSAGGS [r8_490_TrMRF] | -0.735 ± 0.24 | 0.618 ± 0.13 | 0.354 ± 0.12
6 | SDPNKPWTAEEIAKIIEEKILEEFDVEEIIPKELKVFPKEGTVKVKMLVKYKGEPGKYFELEVEISPEELSA [r9_1002_TrMRF] | 1.58 ± 0.037 | 2.9 ± 0.038 | 2.52 ± 0.081
7 | SAGGSAGGSAGGKKIKIPKKVKVKVVKKKDGKLLVYLEKTGKVIELPVEDLKNITAEDLSAGGSAGGSAGGS [r10_709_TrROS_Hall] | 0.976 ± 0.038 | -0.63 ± 0.3 | 0.408 ± 0.094
8 | SAGGSAGGSAGGKIKDIDVQQMPDGWYWVEIEIPDPNGEEVKITIMFPPGHSVDDALDQLSAGGSAGGSAGG [r7_54_TrROS] | 1.01 ± 0.069 | 1.03 ± 0.093 | 1.04 ± 0.22
9 | SAGMMTIEIELKNGKKIKIEVEKKNGKYIIKITVYDKNGKKVKEVKIEVPKKNMSLEEIIKEALKKLLKSAG [r5_630_TrROS_Hall] | 2.83 ± 0.2 | 3.71 ± 0.28 | 3.73 ± 0.47
10 | SAGGSATIEEKIRNIAKEQGFPVTDVQVRRTPGKVYIMFQAKDPRMYYIEIDNDKIKIMPAEDIKPSAGGSA [r15_901_TrROS] | 1.14 ± 0.027 | 1.57 ± 0.064 | 1.36 ± 0.06
11 | SAGGSAGGSMSPEEAKKLAEELAKKLGLEKVEIVEIKVEVDEETNEIKVTIYIRGKDGKWYKLSAGGSAGGS [r12_508_TrROS_Hall] | 3.48 ± 0.18 | 4.2 ± 0.07 | 3.96 ± 0.074
12 | SAGKKTIIIKIPPNMTVEELKKALKNLKPNEKVTITVNGKKYTITVKDGKIKITFPENVKNMILIIEVKSAG [r5_373_TrROS_Hall] | 2.08 ± 0.13 | 2.54 ± 0.057 | 2.4 ± 0.36
13 | SKIEIDEFPWERNPDDGYATIQIKIKVRDPDKKKKDIPHEFPPGSSPDQFWDQIENRAQNNGIKDVEISWSA [r9_1203_TrROS] | 0.0973 ± 0.058 | -0.0831 ± 0.11 | 0.032 ± 0.13
14 | SMKIKIEPLPDGSYRLVAEVPEDAEETENLFPLTGKPIVVKREKNKLVIEFDNPEEVELFAEALKKNIPLSA [r9_515_TrMRF] | 1.28 ± 0.032 | 1.54 ± 0.084 | 1.47 ± 0.12
15 | SAPIVIPAKAGSPENVLKAIKEAKELASKGKKVYLPILTKDGPIFFEVDPKTKTIKIYNPKTGEKKDLSSAG [r14_423_TrMRF] | 1.45 ± 0.032 | 1.04 ± 0.07 | 1.25 ± 0.16
16 | SAGKFKITNISPMEERKPEDDKWEEQPYIMIRMRWKDPQKALDEIKEEFGYPVNIQRDPDDGWATIMIPSAG [r5_907_TrROS] | 0.137 ± 0.2 | 0.231 ± 0.18 | 0.248 ± 0.11

Row | Sequence | folding stability dG unfold [1] [kcal/mol] | folding stability dG unfold [2] [kcal/mol] | folding stability dG unfold [3] [kcal/mol]
17 | SAGLKVEIFPMDGTEQTIPIPAEDADPLVDEFQDNGFKVDNVEVDPDGEVWIPIKFPNGRPWMIEIDWESAG [r5_645_TrROS] | -0.0958 ± 0.093 | -0.0946 ± 0.31 | 0.0616 ± 0.29
18 | SAGGPPIKKIEITKIHPGKGIIQVSIKLPGDGHPIMVRAEIDDPEPGKIKIEIQDPNNGQPQEITIKFSAGG [r13_337_TrROS] | 1.23 ± 0.094 | 0.683 ± 0.08 | 1.1 ± 0.28
19 | SAGGSAGGKKKVLILPKGKKKEYTIEEAKKILKEKLPENAKVRLLETGKEYPVKDLLKKLGIDLSAGGSAGG [r6_936_TrMRF] | -0.276 ± 0.28 | -0.411 ± 0.65 | -0.207 ± 0.45
20 | SAGGMKIEKIFSSEEEAKAAAEKIKNETPEGKELKIEISKIPLKENLPPESPEILDEERYIVKVELPSAGGS [r16_795_JUSTAS] | 0.816 ± 0.078 | 0.116 ± 0.42 | 0.467 ± 0.24
21 | SNKKWRTIELDFWFRTPEQAREWANNLARRLPPDNIDSISVEVEPFPVRKNGEPVGPVYRFKLTIMVRPESA [r9_605_TrROS] | 2.33 ± 0.062 | 2.82 ± 0.032 | 2.6 ± 0.091
22 | SAGGKPLLIKVKVRLKNGKELTITVREGESLEEILARARELLGKPIEVEKIEVIPLPPKKEVKKKEKSAGGS [r8_285_TrROS_Hall] | 1.48 ± 0.019 | 2.86 ± 0.072 | 2.46 ± 0.093
23 | SAGGSAGGKLVLKIKIYNKKTKKVYEFEIEADSLEELKEALKKLGLPKDVKIVSVELRPLDEEPSAGGSAGG [r6_23_TrROS_Hall] | 3.65 ± 0.1 | 4.96 ± 0.075 | 4.79 ± 0.092
24 | SAGKKTVTIVIRLKEPGERLSAEELAALLRELGLPPGAKVTVERRPDGYLVVTVEVDGKTVTIVIELEDSAG [r5_144_TrROS_Hall] | 2.04 ± 0.04 | 2.516 ± 0.019 | 2.34 ± 0.056
25 | SAGGSAGGSAGGGPAPGKGLVVKLEPEEFEFENFRLIVVKAVKDDKLIAEIAYLISPDESAGGSAGGSAGGS [r10_628_TrMRF] | 1.05 ± 0.12 | 0.823 ± 0.18 | 0.904 ± 0.12
26 | SAGGSAGGSAGGKKTITVPKGAVVRITYKNGEKKEVKAGETITIEDLPEDVKIEVVKVKKSAGGSAGGSAGG [r7_968_TrROS_Hall] | 1.73 ± 0.06 | 2.44 ± 0.03 | 2.19 ± 0.094
27 | SAMKLPKDVEIKEIKFDPEKTVTIKIKVKKYDFFIYDPETGKVIVIKPGEEKEITLPANIPLLIFAIKPSAG [r14_385_TrMRF] | 2.16 ± 0.092 | 1.91 ± 0.098 | 2.16 ± 0.23
28 | SKMKVIKTFENKETGEKIVIVKDEKTKKYYIFIYNKDGELVEKIEVEPGETITLPNGKTITIKEGDVIEFSA [r9_340_TrROS_Hall] | 4.24 ± 0.13 | 4.24 ± 0.071 | 4.35 ± 0.087
29 | SAGGSAGGSAGGGMARAEKLPSSWTLVSVTPRDGSTVVTYKLPDGSTLTLDLRPDSYDGASAGGSAGGSAGG [r7_775_JUSTAS] | 0.436 ± 0.058 | 1.46 ± 0.15 | 1.1 ± 0.075
30 | SAGGSAGGSAGGKKVTITLKDANGKELKIEVKEGEEVTIEVGGKKYKLTVKDGKIELKPVSAGGSAGGSAGG [r7_510_TrROS_Hall] | 4.03 ± 0.28 | 4.67 ± 0.23 | 4.61 ± 0.44
31 | SAGGSAGGSAGMYVYKITYPTPSGGASEKLYPSSVPLEEVLKEAEERGAVEIEILPESELSAGGSAGGSAGG [r11_490_JUSTAS] | 0.103 ± 0.1 | 0.151 ± 0.19 | 0.115 ± 0.23
